B1: MOR021453 (antibody, human IgG1, lambda, L234A L235A)
heavy: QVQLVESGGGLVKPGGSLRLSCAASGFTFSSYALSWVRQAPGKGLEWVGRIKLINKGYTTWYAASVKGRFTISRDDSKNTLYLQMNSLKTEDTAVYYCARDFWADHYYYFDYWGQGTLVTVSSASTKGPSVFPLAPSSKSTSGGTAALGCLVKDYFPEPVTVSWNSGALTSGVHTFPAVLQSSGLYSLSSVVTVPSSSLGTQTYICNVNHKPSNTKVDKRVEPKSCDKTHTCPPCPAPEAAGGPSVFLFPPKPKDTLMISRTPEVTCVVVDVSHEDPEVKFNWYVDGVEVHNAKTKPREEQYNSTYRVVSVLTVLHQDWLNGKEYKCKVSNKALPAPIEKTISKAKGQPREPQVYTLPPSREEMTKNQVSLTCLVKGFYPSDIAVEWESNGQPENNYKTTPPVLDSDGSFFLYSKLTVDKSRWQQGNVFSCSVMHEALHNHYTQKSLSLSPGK
light: DIALTQPASVSGSPGQSITISCTGTSSDVGYINYVNWYQQHPGKAPKLMIYEVSNRPSGVSNRFSGSKSGNTASLTISGLQAEDEADYYCASWDWYDNVVFGGGTKLTVLGQPKAAPSVTLFPPSSEELQANKATLVCLISDFYPGAVTVAWKADSSPVKAGVETTTPSKQSNNKYAASSYLSLTPEQWKSHRSYSCQVTHEGSTVEKTVAPTECS
notes: also called MOR21453
B2: MOR021452 (antibody, human IgG1, lambda, L234A L235A)
heavy: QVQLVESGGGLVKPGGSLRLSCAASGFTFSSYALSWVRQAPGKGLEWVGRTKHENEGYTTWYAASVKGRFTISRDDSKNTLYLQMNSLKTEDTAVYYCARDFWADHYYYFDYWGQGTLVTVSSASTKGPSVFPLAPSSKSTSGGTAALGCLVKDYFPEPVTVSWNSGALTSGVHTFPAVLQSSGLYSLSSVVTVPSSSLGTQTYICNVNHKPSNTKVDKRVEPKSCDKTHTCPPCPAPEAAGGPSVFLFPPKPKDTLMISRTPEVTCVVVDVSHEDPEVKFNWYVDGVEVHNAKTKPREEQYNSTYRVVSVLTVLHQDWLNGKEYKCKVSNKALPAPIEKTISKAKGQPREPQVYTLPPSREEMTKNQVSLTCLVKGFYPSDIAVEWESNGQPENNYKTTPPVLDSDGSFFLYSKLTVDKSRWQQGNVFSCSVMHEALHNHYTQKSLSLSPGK
light: B1 light
notes: also called MOR21452
B3: MOR021460 (antibody, human IgG1, lambda, L234A L235A, V domains shown)
VH: QVQLLESGGGLVQPGGSLRLSCAASGFTFSDYALHWVRQAPGKGLEWVSVISYQGGFIYYADSVKGRFTISRDNSKNTLYLQMNSLRAEDTAVYYCARSPGLTSYHDSWGQGTLVTVSS
VL: DIVLTQPPSVSGAPGQRVTISCSGSSSNIGSNYVSWYQQLPGTAPKLLIHSNSHRPSGVPDRFSGSKSGTSASLAITGLQAEDEADYYCQSWDYESERVVFGGGTKLTVLG
notes: also called MOR21460
B4: MOR021468 (antibody, human IgG1, lambda, L234A L235A, V domains shown)
VH: B3 VH with Q54A, I58K, Y59F
VL: B3 VL
notes: also called MOR21468
B5: MOR021433 (antibody, human IgG1, kappa, L234A L235A, V domains shown)
VH: QVQLVQSGAEVKKPGSSVKVSCKASGGTFSDYAISWVRQAPGQGLEWMGGIMPISGAPYYAQKFQGRVTITADESTSTAYMELSSLRSEDTAVYYCARDSSTSYYYYFDYWGQGTLVTVSS
VL: DIQMTQSPSSLSASVGDRVTITCRASQDINSWLAWYQQKPGKAPKLLIYQASNLQSGVPSRFSGSGSGTDFTLTISSLQPEDFATYYCQQIDHTPFTFGQGTKVEIKR
notes: also called MOR21433
B6: MOR021435 (antibody, human IgG1, kappa, L234A L235A, V domains shown)
VH: B5 VH with M52V, S55V, A57T, P58A, Y59N
VL: B5 VL with I91M, D92W, H93Q, T94F, F96I
notes: also called MOR21435
B7: MOR22034 (antibody, human IgG1, kappa, L234A L235A, V domains shown)
VH: B5 VH with M52V, S55V, A57T, P58A, Y59N
VL: B5 VL with N30S, I91M, D92W, H93Q, T94F, F96I
notes: Human IgG1f LALA; also called MOR022034; MOR20234

Positions count from the first letter of the chain named.

T2 sequence (chain, as listed by the source limits assumed): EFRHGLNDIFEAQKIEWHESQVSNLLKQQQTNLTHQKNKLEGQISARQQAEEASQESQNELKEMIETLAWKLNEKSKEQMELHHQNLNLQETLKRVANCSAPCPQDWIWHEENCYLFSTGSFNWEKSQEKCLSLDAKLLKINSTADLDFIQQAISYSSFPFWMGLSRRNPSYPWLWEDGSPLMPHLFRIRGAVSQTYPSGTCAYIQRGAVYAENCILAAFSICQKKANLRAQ

In the first test the target is T1, APP-Avi-soluble human LOX-1(61-273) (human, UniProt P78380 61-273). The test can be described thus: SET, IgG vs soluble human LOX-1. As for the experimental part:
(§1) Affinity determination for anti-LOX-1 IgGs using Solution Equilibrium Titration (SET) was basically performed as described in the literature (Friguet et al., 1985 J Immunol Methods 77: 305-319). The assays were performed in a 96-well polypropylene plate (Thermo Scientific, Catalog no. AB-1127) using a constant concentration of LOX-1 antibody mixed with different concentrations of non-biotinylated human or cynomolgus monkey LOX-1 protein and incubated at 22° C. for 14 hours with constant shaking (300 rpm).
(§2) On a pre-blocked MSD plate (Meso Scale Discovery, catalog no. L21SA) biotinylated human or cynomolgus monkey soluble LOX-1 protein was immobilized and washed afterwards. The equilibrium binding reactions were then applied to the MSD plate with immobilized LOX-1 and incubated for 30 min. The unbound material was removed by washing the plate, and the captured antibody was detected by adding Sulfo-tagged goat anti-human IgG (Meso Scale Discovery, catalog no. R3AJ-1). After incubation and washing 1×MSD read buffer T(Meso Scale Discovery, catalog no. R92TC-2) was added and the plate was developed using a Sector Imager 6000 (Meso Scale Discovery). The data were transferred to Excel for analysis and plotted using GraphPad Prism v5. The KD values were determined by fitting the data to the following equation: […]
On to B1, for which the Kd amounted to 4 pM.

B2 displayed a Kd of 10 pM.

On to B3, for which the Kd is 0.3 pM.

Regarding B4, the Kd came to 0.6 pM.

The molecule B5 registered a Kd of 3 pM.

In turn, B6 returned a Kd of 5 pM.

For another test, the target named is T1, APP-Avi-soluble human LOX-1(61-273). The test can be described thus: competition ELISA: oxLDL binding to plate-bound biotinylated human sLOX-1. As for the experimental part:
NeutrAvidin 384 well plates were coated with 2.5 μg/ml biotinylated LOX-1 diluted in PBS. After blocking with 25% Block Ace (AbD Serotec, Cat#BUF029) in PBS, purified Fabs or IgGs diluted in PBS/1% BSA were added. Subsequently OxLDL (copper-sulfate oxidized LDL, Kalen Biomedical #770202) or MDA-LDL (Academy Biomedical, #20P-UMD-L102) ligand diluted in PBS/1% BSA were allowed to bind to coated LOX-1. Secondary antibody (HRP conjugated sheep anti ApoB IgG; The Binding Site) diluted 1:1,000 in PBS/1% BSA was added followed by addition of TMB substrate (Thermo Scientific). After 10 minutes 1M H2SO4 was added and absorbance was determined at 450 nm. During early screenings, Fab fragments were also tested in this oxLDL binding assay using Fab-containing crude E. coli lysates.
The ability of LOX-1 antibodies to inhibit oxLDL binding to LOX-1 protein was determined using the method described in Example 4. In addition to “high binding OxLDL” from Kalen Biomedical (catalog number 770212-7), which is generated by copper sulfate mediated oxidation of LDL, two other forms of modified LDL were tested in this assay: malondialdehyde modified LDL (Academy Bio-Medical Co. catalog number 20P-MD-L105) and hypochlorite modified LDL. Hypochlorite modified LDL was prepared according to the following procedure. Human LDL (Kalen Biomedical catalog number 770200-4) was diluted with PBS to a final concentration of 0.25 mg/mL. Sodium hypochlorite (NaOCI, JT Baker catalog number 9416-01) was then added to 0.1 mM final concentration. The solution was incubated at room temperate for 4 hours, then quenched by adding L-methionine to a final concentration of reaction by adding 5 μl of 100 mM Mehionine per 200 μl total volume.
Take B1: the 50% inhibitory concentration (IC50) amounted to 2600 pM.

With B2, the IC50 amounted to 3200 pM.

B3 showed an IC50 of 4000 pM.

B4 yielded a 50% inhibitory concentration (IC50) of 4800 pM.

The molecule B7 gave an IC50 of 10000 pM.

B5 registered a 50% inhibitory concentration (IC50) of 2900 pM.

As for B6, the IC50 came to 2800 pM.

The next test concerns the target T2, APP-Avi-soluble cynomolgus monkey LOX-1(61-273) (cynomolgus monkey).
T2 construct: Non-biotinylated as titrated antigen in SET, biotinylated for capture on the plate; also called cyno sLOX-1; cynomolgus monkey soluble LOX-1
The test can be described thus: SET, IgG vs soluble cynomolgus LOX-1. Here is the method:
as §1, §2
As to B1, the Kd is 7 pM.

As for B2, the Kd came to 7 pM.

Molecule B3 registered a Kd of 0.7 pM.

Turning to B4, the Kd is 0.5 pM.

Turning to B7, the Kd was 5 pM.

As for B5, the Kd was determined as 4 pM.

On to B6, for which the Kd was 5 pM.

Another test concerns the target T3, human LOX-1 (full-length, on cells) (human, UniProt P78380 1-273).
T3 construct: also called huLOX-1/HEK293 cells; human LOX-1 transfected HEK293 cells
Nature of the test: flow cytometry: DiI-oxLDL binding to human LOX-1 transfected HEK293 cells. As for the experimental part:
The huLOX-1/HEK293 cells were resuspended at 1×10⁶ cells/mL and seeded 50 μL per well into a 96-well V-bottom plate (5×10⁴ cells per well). LOX-1 or irrelevant control antibodies in assay medium (DMEM+10% FBS) were then added to the cells. Typical final antibody concentrations ranged from 0.006 μg/mL to 20 μg/mL. The cells were incubated at 37° C. for 1 hour, then washed twice with warm HBSS. Dil-oxLDL (human dil-labeled “High Oxidized” LDL, Kalen Biomedical, catalog number 770262-9; Dil is 1,1′-dioctadecyl-3,3,3′,3′-tetramethylindocarbocyanine perchlorate) in 50 ul assay medium was then added to a final concentration 30 to 100 μg/mL. The cells were then incubated at 37° C. for 2 hours, and then washed twice with FACS buffer (2% FBS in PBS). Cells were then analyzed for intensity of Di-I fluorescence by flow cytometry, as depicted in FIGS. 2A-2B and Table 3.
B7 gave an IC50 of 600 pM.

For a further test, the target named is T3, human LOX-1 (full-length, on cells). Nature of the test: cell-based or functional assay.
Regarding B7, the “Inhibition of ROS generation (IC50, nM)” value was determined as 1.6 nM.

Another test has as its target T1, APP-Avi-soluble human LOX-1(61-273). The test can be described thus: SET, IgG vs soluble human LOX-1. This is another data set of the same source.
B1 yielded a Kd of 4 pM.

Molecule B2 yielded a Kd of 7.5 pM.

Regarding B3, the Kd was 0.3 pM.

Molecule B4 had a Kd of 0.65 pM.

Regarding B7, the Kd came to 5 pM.

B5 returned a Kd of 2.5 pM.

Molecule B6 returned a Kd of 6 pM.

The target is the same in a further test. Nature of the test: competition ELISA: AGE-BSA binding to plate-bound biotinylated human sLOX-1. As for the experimental part: Purified APP-Avi-soluble human soluble LOX-1(61-273) protein prepared as described in Example 1 was biotinylated as described in Example 5. NeutrAvidin 384 well plates were coated with 5 μg/ml biotinylated LOX-1 diluted in bicarbonate buffer (Thermo Scientific). After blocking with PBS/2% BSA/0.1% Tween20/0.1% TritonX-100, purified Fabs or IgGs diluted in PBS/2% BSA/0.1% Tween20/0.1% TritonX-100 were added. Subsequently AGE-BSA ligand (R&D Systems, #BT4127) diluted in PBS/2% BSA/0.1% Tween20/0.1% TritonX-100 was allowed to bind to coated LOX-1. Streptavidin-HRP (R&D Systems) diluted 1:200 in PBS/2% BSA/0.1% Tween20/0.1% TritonX-100 was added followed by addition of TMB substrate (Thermo Scientific). After 10 minutes 1M H₂SO₄ was added and absorbance was determined at 450 nm. Assay performance was affected by the type of BSA used for blocking and diluent solutions. For optimal assay performance, BSA from Sigma (catalog #A4503) was used.
B1: the IC50 came out at 1600 pM.

For the molecule B2, the IC50 was 2200 pM.

The molecule B3 came in with an IC50 of 2100 pM.

For the molecule B4, the IC50 was determined as 2400 pM.

With B5, the IC50 worked out at 1400 pM.

Consider B6, for which the IC50 was found to be 1700 pM.

Values taken from patent US20170260272A1 (Novartis, published 2017).
